Our source for the decrease in donor lifetime against CHUP1:GFP alone and donor (CHUP1:GFP) fluorescence lifetime with KAC1:RFP values is publication PMC12481158.

The test deals with CHLOROPLAST UNUSUAL POSITIONING 1 with C-terminal GFP (CHUP1:GFP) (N. benthamiana). Briefly: FRET or BRET; nonfitting FLIM-FRET (average-arrival-time FRET) in planta; CHUP1:GFP donor, KAC1:RFP acceptor; mean weighted photon arrival time on chloroplasts juxtaposed to the PM. (In general: Bioluminescence resonance energy transfer reports proximity on the nanometre scale.)

In turn, “KINESIN-LIKE PROTEIN FOR ACTIN-BASED CHLOROPLAST MOVEMENT 1 with C-terminal RFP (KAC1:RFP) (natural protein)” registered a decrease in donor lifetime against CHUP1:GFP alone of 143 ps and a donor (CHUP1:GFP) fluorescence lifetime with KAC1:RFP of 2.27 ns.
